Test results reported in article PMC10058294, “Interaction of SARS-CoV-2 Nucleocapsid Protein and Human RNA Helicases DDX1 and DDX3X Modulates Their Activities on Double-Stranded RNA” (International Journal of Molecular Sciences, 2023).

Target: T1, recombinant full-length SARS-CoV-2 nucleocapsid protein (Np) (SARS-CoV-2, UniProt P0DTC9 1-419)
T1 construct: also called N protein; recombinant Np
Assay: pull-down
Details: both partners purified

B1: HALO-tagged recombinant full-length human DDX3X (enzyme, UniProt O00571 1-662, looked up)
chain: MSHVAVENALGLDQQFAGLDLNSSDNQSGGSTASKGRYIPPHLRNREATKGFYDKDSSGWSSSKDKDAYSSFGSRSDSRGKSSFFSDRGSGSRGRFDDRGRSDYDGIGSRGDRSGFGKFERGGNSRWCDKSDEDDWSKPLPPSERLEQELFSGGNTGINFEKYDDIPVEATGNNCPPHIESFSDVEMGEIIMGNIELTRYTRPTPVQKHAIPIIKEKRDLMACAQTGSGKTAAFLLPILSQIYSDGPGEALRAMKENGRYGRRKQYPISLVLAPTRELAVQIYEEARKFSYRSRVRPCVVYGGADIGQQIRDLERGCHLLVATPGRLVDMMERGKIGLDFCKYLVLDEADRMLDMGFEPQIRRIVEQDTMPPKGVRHTMMFSATFPKEIQMLARDFLDEYIFLAVGRVGSTSENITQKVVWVEESDKRSFLLDLLNATGKDSLTLVFVETKKGADSLEDFLYHEGYACTSIHGDRSQRDREEALHQFRSGKSPILVATAVAARGLDISNVKHVINFDLPSDIEEYVHRIGRTGRVGNLGLATSFFNERNINITKDLLDLLVEAKQEVPSWLENMAYEHHYKGSSRGRSKSSRFSGGFGARDYRQSSGASSSSFSSSRASSSRSGGGGHGSSRGFGGGGYGGFYNSDGYGGNYNSQGVDWWGN
notes: TEV site between tag and DDX3X; The helicase and EMSA assays used another construct (pET30a(+)-DDX3X, purified from ShuffleT7 E. coli); also called HALO-DDX3X; Halo-tagged DDX3X; not shown: HaloTag, N-terminal, kept
- binding result: binds
